The data set in a line: soluble on expression in E. coli; label from the status in PepcDB or PDB records.
For the sequence “MSLSRVTEIRYVGYGVKDFDAEKAFYADVWGLEPVGEDANNAWFKAQGADEHHVVQLRRADENRIDVIALAADSRSDVDALRASVEAAGCKVASEPAVLATPGGGYGFRFFSPDGLLFEVSSDVAKGAKRDLARWEGVPVKISHIVLHSPNHQDMVKFFTDVLGFKVSDWLGDFMCFLRCNSAHHRIAILPGPPCLNHVAYDMLSVDDMMRGAHRLKVKGIDIGWGPGRHTAGNNTFSYFVTPGGFVTEYTSELEEVDFDTHQYKVHVPAPMVMDQWGIGTGGPQTLPHPHANPGLFQTAEAEGHHHHHH”, the “soluble on expression in E. coli” value is on record as “soluble”.

Regarding “MGSDKIHHHHHHMSSSQQIAKNARKAGNILKTISNEGRSDILYKIHDALKANAHAIEEANKIDLAVAKETGLADSLLKRLDLFKGDKFEVMLQGIKDVAELEDPVGKVKMARELDDGLTLYQVTAPVGVLLVIFESRPEVIANITALSIKSGNAAILKGGKESVNTFREMAKIVNDTIAQFQSETGVPVGSVQLIETRQDVSDLLDQDEYIDLVVPRGSNALVRKIKDTTKIPVLGHADGICSIYLDEDADLIKAKRISLDAKTNYPAGCNAMETLLINPKFSKWWEVLENLTLEGGVTIHATKDLKTAYFDKLNELGKLTEAIQCKTVDADEEQDFDKEFLSLDLAAKFVTSTESAIQHINTHSSRHTDAIVTENKANAEKFMKGVDSSGVYWNASTRFADGFRYGFGAEVGISTSKIHARGPVGLDGLVSYQYQIRGDGQVASDYLGAGGNKAFVHKDLDIKTVTL”, the “soluble on expression in E. coli” value is reported as “soluble”.

In the case of “KAFLEDMKKYAETFLEPWFKAPNKGTFQIVYKSRNNSHVNREEVIRELAGIVCTLNSENKVDLTNPQYTVVVEIIKAVCCLSVVK”, the “soluble on expression in E. coli” value is “soluble”.

Consider “MGSDKIHHHHHHMRKLAHNFYKPLAIGAPEPIRELPVRPERVVHFFPPHVEKIRARIPEVAKQVDVLCGNLEDAIPMDAKEAARNGFIEVVKATDFGDTALWVRVNALNSPWVLDDIAEIVAAVGNKLDVIMIPKVEGPWDIHFVDQYLALLEARHQIKKPILIHALLETAQGMVNLEEIAGASPRMHGFSLGPADLAASRGMKTTRVGGGHPFYGVLADPQEGQAERPFYQQDLWHYTIARMVDVAVAHGLRAFYGPFGDIKDEAACEAQFRNAFLLGCTGAWSLAPNQIPIAKRVFSPDVNEVLFAKRILEAMPDGSGVAMIDGKMQDDATWKQAKVIVDLARMIAKKDPDLAQAYGL”, for which the “soluble on expression in E. coli” value was “not soluble”.

Take “VTDLAGTTRLLRAQGVTAPAGFRAAGVAAGIKASGALDLALVFNEGPDYAAAGVFTRNQVKAAPVLWTQQVLTTGRLRAVILNSGGANACTGPAGFADTHATAEAVAAALSDWGTETGAIEVAVCSTGLIGDRLPMDKLLAGVAHVVHEMHGGLVGGDEAAHAIMTTDNVPKQVALHHHDNWTVGGMAKGAGMLAPSLA”: the “soluble on expression in E. coli” value was “soluble”.

For the sequence “AIASFRTCHNWFPLCLLLKETNNDISGEGIYSSRSELFQQPLAKETQRWSTGPSFVKHYGRLKRHSLPAVHFFDNSQSFLQNLQPNETFPETTTLDWKELENATRLLNDFMESASEDGDSLFDDEFPTMHAKTKLQDGLSTHPQSPPSDITQSVLSNTQSPVPSMLSETELPDFGEDFVNANEELVS”, the “soluble on expression in E. coli” value was “soluble”.

As for “MGSDKIHHHHHHMTPSEYQNPILCADYSDPDIVRVGDDFFMVSSSFNHVPALPILHSTDLVNWTIINHVMDELPLPGYDRYQPGKGVWAPSIRWHDGKLWVCFSTPDEGIFICHTEDPWGKWSAPHCLREARGWIDPCPFWDDNGQAWLVHAFAHSRSGIKHKLQLFAMAPDASELLGEGQIIYDGCCDLPTLEGPKVYQRAGWYYIFAPAGGVENGWQTVLRARQMTGPWEAKNVLFQGNTSINGPHQGGWVEGEEGECWFVHFQDLHLYGRVVHLQPMSWGNDGWPRIGEQIGNCGVGQPVLRWPRPKGLTPSPALAPQTSDYFAQGQPGIQWQWQANPSPEWLLPAEGELRLRCVPLSEVDGQRALYWAPQLLLQKFPALTFSAKTSVTLYAAQDGDAGGLIVYGERYAALLVEFGQGGYRLVWRHGWMSDAGVVRETRQVLAELKCGKCQLQVAVGEGGLCQFSWRAEEEWRKVPLCFAAGKGKWVGAKFGLLAASMVGLQSEGYSALQDFEVIL”, the “soluble on expression in E. coli” value is recorded as “not soluble”.

Regarding “MGSDKIHHHHHHMNDLLPFLAQVSLFKGIETEELPKMLNRLNARKVSYKKNDVILREGQSVHSVGIMLSGKVKVVKEDFKGNTNVMTFIEPGAMFAEAYACTQTANLPFTVLSVMETKILWIDYRKIISTCTSACESHEKLIENMMKALASKSILLNQKIEHISKRTTQEKLLTYLFDQSKKSGSNEFEIPFSRQELADYLCVDRSAMSNELCKLQREGVLNFHLNHFKLSKSSSEAQL”, the “soluble on expression in E. coli” value was “not soluble”.

Take DCYCRIPACIAGEKKYGTCIYQGKLWAFCC: the “soluble on expression in E. coli” value is listed as “soluble”.

Consider “MSQPCPHCGFQFNCICSLVPKLTSKHEILLLMHPNELTRDTNTGQLLQHCQLNVEQAIWDRKQPPAELLTRLANPSLYPVILFPSEESITLEHVEMQSQQQAKMPLYIILDATWQEARKMINKSRWLEGIPTMGLSALADSQYQLRRNQQQGNLCTFEVAAHLLGQLGEQDNQQQMHTFFTHYLALFQAEKSGHALKSSPRSLEAAALEHHHHHH”, for which the “soluble on expression in E. coli” value is “not soluble”.

For the sequence “MQFSKMHGLGNDFMVVDAVTQNVYFSPELIRRLADRHTGVGFDQMLVVEPPYDPELDFHYRIFNADGSEVSQCGNGARCFARFVRLKGLTNKREISVSTQTGRMILSVTEDEQVCVNMGEPDFEPQTVPFRAAKAEKTYILRAAEHTVLCGVVSMGNPHCVMQVDDVSVANVALLGPVLENHERFPERANIGFMQVVSRDHIRLRVYERGAGETQACGSGACAAVAVGVVQDLLNENVHVELPGGSLHIRWQGPGHPLYMTGPATHVYDGFIHL”, the “soluble on expression in E. coli” value is reported as “not soluble”.

As for “MGSDKIHHHHHHMSRRDEGNMVADAGALLPNGDTVSTDAIKVPAGRVNRLMRLGGLAAGIAGGATLQAIAGIARGTRPDARSLLASPANVRRVADELARMRGAAMKIGQLLSMDAGEVLPPELAQILARLRDRAHIMPPSQLGQVLEREWGAGWRRQFKRFDVRPIAAASIGQVHRARTRDGRDLAIKVQYPGVARSIDSDVSNVGALLRLSGLLPKGFDISPYLAEARRQLHEETDYAREGAQLKRFAEWLTDSDTFVVPQYHADLSTAQILAMSYVAGQPIETLADADAATRNRVMTALVDLSLREVFHFGAMQSDPNFANYRYVPQSGRIVLLDFGAARDLHPLVTKSYADMLRSGLVGDDHGIWDAARALGLISDGPDIGSSEARLLALIAGVFEVLRAQEFDFADQTLIRALNEEGMALAQSGYHPPSLPMDVLYLQRKFGGLFLLGNRLRTKLCLRDIIDPYL”, the “soluble on expression in E. coli” value is listed as “not soluble”.

For “SLDSKTTVNINIPSGSSVSAIASILKKNDVIKSEKAFQYYVKYKGASGFQAGFYHLNKGMDLDAIIQKLTSGATGYAFQITVTEGAQLTQIAAAIADETKYSKKQVIAKLDDETFINQLKKEFPDTVTNDVFNKNIKHPLEGYLFPATYPFNDPDTSLEDIIKAMIKQTNSYVETYKSEMKKNKVSVHKLLTMASLIEEEATEKADRHKIASVFYNRLKKKMPLQTDPTVLYAAGKHKDRVLYKDLEIDSPYNTYKNTGLTPGPIANAGMSSWEAALHPDKTDYLYFLAKSNGEVVFTKTLKEHNKAKEKYISSKNEK”, the “soluble on expression in E. coli” value is “soluble”.

For the sequence “QVRLVESGGGVVQPGGSLRLSCEGSGFKFGDHGIHWVRQAPGEGLQWLTVISSDGTDERYTDSVKGRFTISRDNSKNTMSLQMNNLRPEDMGLYYCARDGKCGGGRCYSGLLDYWGQGTMVTVSSASFKGPSVFPLAPSSKSTSGGTAALGCLVKDYFPEPVTVSWNSGALTSGVHTFPAVLQSSGLYSLSSVVTVPSSSLGTQTYICNVNHKPSNTKVDKKVEPKSCDKTHTGLEHHHHHH”, the “soluble on expression in E. coli” value is on record as “soluble”.

On to “MDKFRVQGRTRLSGEVTISGAKNAALPILFAALLAEEPVELQNVPKLKDIDTTIKLLSQLGTKIERNNGSVFVDASAVNEFCAPYDLVKTMRASIWALGPLVARFGQGQVSLPGGCAIGARPVDLHITGLEQLGAEIKLEEGYVKASVNGRLKGAHIVMDKVSVGATVTIMSAATLAEGTTVIENAAREPEIVDTANFLNTLGAKISGAGTDRITIEGVTRLGGGVYRVLPDRIETGTFLVAAAISGGKVVCRQTRPDTLDAVLAKLREAGADIEVGDDWISLDMQGKRPKAITFRTAPHPGFPTDMQAQFSLLNLVAEGTGVITETIFENRFMHVPELIRMGAHAEIESNTVICYGVEQLSGAQVMATDLRASASLVLAGCIAEGVTIVDRIYHIDRGYERIEDKLRALGAKIERVKGE”, for which the “soluble on expression in E. coli” value is listed as “not soluble”.

As to “MSLAAGYGVPLEQGEHRLGSSRVVVETAGDGLVRYRREVDGGGSVELLFDGTVDLQPVPMYPIFKPLYVTRFILLRIEPRIVVSPGSERTFYTLIPVDTAIYAFPGDEPTIVDVIPMDDKPSLVLYGPPESGVVARLAISSVSPRPEEPSLGRALARIAVKNISGTPVTLSRILLDSAPLKLYFERGTWRAYTQELAVEVERYRGVVMYRQPFREGTMPISDPPEVRPPRFFQRTDMMWGVEGHHHHHH”, the “soluble on expression in E. coli” value is given as “not soluble”.

Regarding “MGSDKIHHHHHHMLMTPDEDRITQLYEAFNRRAFDRCIAMLAPDVSWPDELEDRRLEGLDAVRAYLDHAIAPLRVCYQPIALFTPSPGQIEVLARQTVLSATDGSLWSSLRVRHRYTIKDGLFTHLESEQNYTAPTFEGVDRLLRRLYDAINAGDVDGAAACFGDHACFEDKLEDGPISGPAAIRAHFEHLFATLQVTATMCDYALEPDDRVRVRLQVEARGATGRLWHDGGVTAWYRLEGGLIVGQDVDDSGEEAP”, the “soluble on expression in E. coli” value is on record as “not soluble”.

In the case of “MKSDWSTDFFHQSQTPNPYPPIVQQQQQPPHTSSSFFNTNHQLNSHYSSPIHQPPTSLHQPIPMMQNQFKASPPQSDQETAPTTPGSGSGGQMKGERCVGCGSESAIRVHYGASSCHGCKAFFRRSVFEGRVYMCSADNHCDITNESRNRCRACRLRNCLEGGMNPKHVREERSKIERMPGNTCTVSAANGVSHSSSAASASPEHKFSFSLSTIAPSTSTGSFSSGSQPAPIESTNSSGSEAEVLDRKLIQENQLTLFMVALEKQTEQLTDDDVKDNDVMGAWSRDITLTFGLQHPQMVIKRLPLKYSCDRIMEAADLYLSWYRSFVFAADWAMGIPEFRVLPLADQTTLFKQNFMAFGWITFAYKCFELKQHLTGMPLGNGAYIPYNDEDQKKLPERWAQTYGVVCRKLIDLIVKAMIELQITEEEYCLIKTISLFQQDCILSEAGQGICSRMRDRLLDALSAHIEKRYPYHTTSQRMTRALKISLMLPSFSHIGQVESTLITQLTAADLHQLSGVPMEICTAQTTL”, the “soluble on expression in E. coli” value is “not soluble”.

On to “MGSDKIHHHHHHMTEDQAFWNAFAPDYAAAEQASRLPIAHDVIAWLRSTQLLPAHSAVDLAAGTGRYAVQMMPWVQELTLIDWSSAMLAFAKERMHQQADTKAQFIVADWRKLHKPLNADMLFVSQLPTLKPQDLKMLMNWASQTVVLNFQTAQSDALLEQAASLLGLQLPPVYQADPARMISFKVWLTAQRIPFQSHSLTYEIEEQTTLSDLLPDLATPIGLKTAASLAKAITGHENTHVQVTDRLTYTYTQLVWHV”, for which the “soluble on expression in E. coli” value is “not soluble”.

Take “MIRIDVVLPAYRPGQGWEREAISRLTALSDSIPDVTFRIFIVPDGSNEGHSDEVRSHWATSPWEVIYCDYAKNRGKGFAVRYGVGQTDAPFVLYTDYDLPFTLDSYKQVIEALLEGADVVISRREPESYGKKIRFKRKMLSDFSHFVNKFFFLPTTDTQGGLKGFSSTGRFIFLQTRIDSFLFDTEFICLAKRKKVCIAVVSGSIRPDISLSVMKAKTILREVYKIPKLIKARWFS”: the “soluble on expression in E. coli” value is on record as “not soluble”.

For the origin of these results see the DeepSol protein solubility set.
